pKd: −log10 of the molar value.
Legend:
[1] = biological target: recombinant human NRP1 protein (human) (UniProt O14786); experiment: SPR; Biacore T200; ACE2 or NRP1 amine-coupled on a CM5 chip (about 10,000 RU); tuftsin flowed at gradient concentrations; 25°C, 30 µl/min; 1×PBS, 0.05% Tween 20, 5% dimethyl sulfoxide, pH 7.4; steady state affinity model
[2] = biological target: recombinant human ACE2 protein (human) (UniProt Q9BYF1); experiment: as above
Sequence of recombinant human ACE2 protein (human) (Q9BYF1 18-740): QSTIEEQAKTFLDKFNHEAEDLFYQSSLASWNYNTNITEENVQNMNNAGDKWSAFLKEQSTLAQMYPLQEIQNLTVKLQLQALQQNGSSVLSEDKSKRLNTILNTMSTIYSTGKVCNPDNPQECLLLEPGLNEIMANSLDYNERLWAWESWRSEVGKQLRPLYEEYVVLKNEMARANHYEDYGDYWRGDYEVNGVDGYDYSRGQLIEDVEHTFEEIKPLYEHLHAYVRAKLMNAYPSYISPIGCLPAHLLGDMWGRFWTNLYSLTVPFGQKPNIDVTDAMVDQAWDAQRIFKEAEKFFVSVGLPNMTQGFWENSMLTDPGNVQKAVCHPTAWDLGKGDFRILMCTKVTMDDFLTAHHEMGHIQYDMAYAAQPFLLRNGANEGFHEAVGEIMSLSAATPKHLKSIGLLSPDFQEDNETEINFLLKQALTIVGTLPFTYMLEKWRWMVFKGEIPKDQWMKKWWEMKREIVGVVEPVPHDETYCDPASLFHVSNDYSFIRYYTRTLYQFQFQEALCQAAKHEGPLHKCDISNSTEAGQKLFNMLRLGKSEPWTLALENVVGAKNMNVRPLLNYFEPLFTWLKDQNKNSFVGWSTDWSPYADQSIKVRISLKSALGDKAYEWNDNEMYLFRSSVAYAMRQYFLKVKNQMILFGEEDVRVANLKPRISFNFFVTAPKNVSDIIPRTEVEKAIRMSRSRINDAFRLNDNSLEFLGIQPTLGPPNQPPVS

pKd [1]: 4.97
pKd [2]: 3.34
Substance: tuftsin (peptide)

Reference: PMC8984176, “Tuftsin: A Natural Molecule Against SARS-CoV-2 Infection” (Frontiers in Molecular Biosciences, 2022)
